Experiment [1] has as its target SARS-CoV-2 英国流行株 (MW255832) live virus, spike glycoprotein (SARS-CoV-2). Briefly: cell-based or functional assay.
Experiment [2] has as its target SARS-CoV-2 东南亚株 (MW341443) live virus, spike glycoprotein (SARS-CoV-2). Briefly: cell-based or functional assay.

B1: 抗体nCoV617 (anti-coronavirus spike glycoprotein human monoclonal antibody) (antibody, V domains shown)
VH: QVQLVESGGGVVQPGRSLRLSCAASGFTFSSYAMHWVRQAPGKGLEWVALISYDGSNKYYADSVKGRFTISRDNSKNTLYLQMNSLRAEDTAVYYCARGLGLRFLEWPISSYWGQGTLVTVSS
VL: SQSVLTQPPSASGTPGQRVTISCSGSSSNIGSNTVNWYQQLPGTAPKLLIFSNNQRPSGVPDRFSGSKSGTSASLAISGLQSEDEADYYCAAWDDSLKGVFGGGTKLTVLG
notes: also called 抗S蛋白抗体; 抗冠状病毒刺突糖蛋白单克隆抗体
In the case of B1, the “IC50 (neutralisation of live virus on Vero E6 cells, cytopathic effect)” value came to 1.1 µg/mL in experiment [1] and 0.87 µg/mL in experiment [2].

The record behind these values is patent publication CN115141270A (SHENZHEN KANGMAI BIOTECHNOLOGY CO LTD, dated 2022).
